Laboratory results as given in patent publication US20240400614A1, “CLEAVABLE PEPTIDES AND METHODS OF USE THEREOF” (Bright Peak Therapeutics AG, priority 2023, published 2024).
Square brackets hold non-standard residues; d marks the D form. Ends that are not written are not given here. Tyr(3-NO2) = N[C@@H](Cc1ccc(O)c([N+](=O)[O-])c1)C(=O)O; Nle = CCCC[C@H](N)C(=O)O; 2Abz = Nc1ccccc1C(=O)O

Tests used:
Assay type in all cases: biochemical
Kallikrein-3 = Kallikrein-3 (Homo sapiens, UniProt P07288); experiment: FRET peptide cleavage efficiency with Kallikrein-3; conditions: peptide 200 uM, Kallikrein-3 2 μg/ml, 37° C., pH 8
Kallikrein-3, sequence (P07288 25-261, species assumed): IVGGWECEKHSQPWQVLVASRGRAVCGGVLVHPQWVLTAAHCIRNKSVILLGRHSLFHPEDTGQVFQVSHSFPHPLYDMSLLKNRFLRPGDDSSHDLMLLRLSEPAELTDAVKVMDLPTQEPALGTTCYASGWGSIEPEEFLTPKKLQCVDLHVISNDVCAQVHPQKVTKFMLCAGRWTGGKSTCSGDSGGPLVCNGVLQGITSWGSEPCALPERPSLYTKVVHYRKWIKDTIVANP

uPA = uPA (Homo sapiens, UniProt P00749); experiment: FRET peptide cleavage efficiency with uPA; conditions: 200 uM linker, 1 ug/ml protease, 37° C., buffer A pH 8.5
MMP-2 = target: T1, MMP-2 (Homo sapiens, UniProt P08253); experiment: FRET peptide cleavage efficiency with MMP-2
T1 construct: purchased SIGMA PF023
T1 sequence (P08253 110-660): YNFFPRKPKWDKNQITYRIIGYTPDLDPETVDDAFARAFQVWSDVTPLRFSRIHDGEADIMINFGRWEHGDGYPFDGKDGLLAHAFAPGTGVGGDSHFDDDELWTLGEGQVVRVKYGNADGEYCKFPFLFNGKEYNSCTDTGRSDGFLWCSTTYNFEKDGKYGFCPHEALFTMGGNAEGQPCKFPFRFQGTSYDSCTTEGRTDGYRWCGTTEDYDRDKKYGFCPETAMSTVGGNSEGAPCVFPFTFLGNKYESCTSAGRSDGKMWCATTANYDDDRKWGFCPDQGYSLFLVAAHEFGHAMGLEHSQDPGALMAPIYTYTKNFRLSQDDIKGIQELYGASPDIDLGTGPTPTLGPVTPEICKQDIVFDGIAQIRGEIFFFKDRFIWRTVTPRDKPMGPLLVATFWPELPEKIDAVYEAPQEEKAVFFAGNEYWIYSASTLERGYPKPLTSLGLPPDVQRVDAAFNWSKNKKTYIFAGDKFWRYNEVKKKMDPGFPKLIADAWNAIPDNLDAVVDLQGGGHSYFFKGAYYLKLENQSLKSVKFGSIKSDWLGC

MMP-9 = target: T2, MMP-9 (Homo sapiens, UniProt P14780); experiment: FRET peptide cleavage efficiency with MMP-9 (standard pH 7.5; also pH 6.5); conditions: for % cleavage MMP-9 t = 15 min: t = 15 min (Table 9); for % cleavage MMP-9 t = 60 min: t = 60 min (Table 9); for % cleavage MMP-9 t = 120 min: t = 120 min (Table 9)
T2 construct: purchased SIGMA PF024
T2 sequence (P14780 94-707): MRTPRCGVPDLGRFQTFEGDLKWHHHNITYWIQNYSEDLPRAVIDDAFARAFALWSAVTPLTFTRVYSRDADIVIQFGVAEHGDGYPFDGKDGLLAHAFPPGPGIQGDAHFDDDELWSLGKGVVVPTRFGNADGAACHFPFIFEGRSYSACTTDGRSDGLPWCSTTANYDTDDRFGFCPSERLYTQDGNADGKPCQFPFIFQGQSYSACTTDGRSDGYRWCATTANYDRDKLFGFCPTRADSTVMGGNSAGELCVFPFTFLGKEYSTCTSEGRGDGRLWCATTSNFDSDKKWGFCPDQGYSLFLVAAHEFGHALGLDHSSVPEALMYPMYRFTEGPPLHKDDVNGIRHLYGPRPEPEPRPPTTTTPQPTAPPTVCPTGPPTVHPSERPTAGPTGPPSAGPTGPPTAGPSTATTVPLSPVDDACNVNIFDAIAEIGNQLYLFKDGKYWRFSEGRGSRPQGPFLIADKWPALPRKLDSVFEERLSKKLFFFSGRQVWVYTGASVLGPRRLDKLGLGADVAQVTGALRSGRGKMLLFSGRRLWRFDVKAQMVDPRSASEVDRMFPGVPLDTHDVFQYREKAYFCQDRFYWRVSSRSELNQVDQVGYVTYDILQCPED

matriptase = target: T3, matriptase (Homo sapiens, UniProt Q9Y5Y6); experiment: FRET peptide cleavage efficiency with matriptase; conditions: 200 uM linker, 1 ug/ml protease, 37° C., buffer B pH 9.0
T3 construct: purchased R&D Systems 3946-SEB
T3 sequence (Q9Y5Y6 615-855 limits assumed): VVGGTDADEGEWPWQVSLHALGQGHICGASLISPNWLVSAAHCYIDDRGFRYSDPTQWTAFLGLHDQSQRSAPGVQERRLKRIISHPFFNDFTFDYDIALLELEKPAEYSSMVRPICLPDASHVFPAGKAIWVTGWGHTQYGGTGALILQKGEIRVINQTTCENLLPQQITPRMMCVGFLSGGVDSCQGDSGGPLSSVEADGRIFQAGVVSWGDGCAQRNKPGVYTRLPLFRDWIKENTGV

MMP-7 = target: T4, MMP-7 (Homo sapiens, UniProt P09237); experiment: FRET peptide cleavage efficiency with MMP-7 (standard pH 7.5; also pH 6.5); conditions: for % cleavage MMP-7 t = 15 min: t = 15 min (Table 9); for % cleavage MMP-7 t = 60 min: t = 60 min (Table 9); for % cleavage MMP-7 t = 120 min: t = 120 min (Table 9)
T4 construct: purchased SIGMA CC1059
T4 sequence (P09237 95-267): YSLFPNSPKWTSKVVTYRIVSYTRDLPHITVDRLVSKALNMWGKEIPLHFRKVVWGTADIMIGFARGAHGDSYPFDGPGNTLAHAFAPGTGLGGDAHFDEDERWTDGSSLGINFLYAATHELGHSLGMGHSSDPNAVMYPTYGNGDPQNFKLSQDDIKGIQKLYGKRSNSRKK

[1] = t = 15 min, 200 uM linker, 1 ug/ml protease, 37° C., buffer C pH 7.5
[2] = t = 60 min, 200 uM linker, 1 ug/ml protease, 37° C., buffer C pH 7.5
[3] = t = 120 min, 200 uM linker, 1 ug/ml protease, 37° C., buffer C pH 7.5

| Kallikrein-3 t = 1 h % cleavage (Kallikrein-3) [%] | Kallikrein-3 t = 3 h % cleavage (Kallikrein-3) [%] | Kallikrein-3 t = 6 h % cleavage (Kallikrein-3) [%] | Kallikrein-3 t = 8 h % cleavage (Kallikrein-3) [%] | % cleavage uPA t = 15 min (uPA) [%] | % cleavage uPA t = 60 min (uPA) [%] | % cleavage uPA t = 120 min (uPA) [%] | % cleavage MMP-2 t = 15 min (MMP-2; t = 15 min (Table 9)) [%] | % cleavage MMP-2 t = 15 min (MMP-2; [1]) [%] | % cleavage MMP-2 t = 60 min (MMP-2; t = 60 min (Table 9)) [%] | % cleavage MMP-2 t = 60 min (MMP-2; [2]) [%] | % cleavage MMP-2 t = 120 min (MMP-2; t = 120 min (Table 9)) [%] | % cleavage MMP-2 t = 120 min (MMP-2; [3]) [%] | % cleavage MMP-9 t = 15 min (MMP-9) [%] | % cleavage MMP-9 t = 60 min (MMP-9) [%] | % cleavage MMP-9 t = 120 min (MMP-9) [%] | % cleavage Matriptase t = 15 min (matriptase) [%] | % cleavage Matriptase t = 60 min (matriptase) [%] | % cleavage Matriptase t = 120 min (matriptase) [%] | % cleavage MMP-7 t = 15 min (MMP-7) [%] | Substance | further results |
| --- | --- | --- | --- | --- | --- | --- | --- | --- | --- | --- | --- | --- | --- | --- | --- | --- | --- | --- | --- | --- | --- |
| 0 | 0 | 0 | 0 | 0 | 0 | 0 | 0 | 0 | 0 | 0 | 0 | 0 | 0 | 0 | 0 | 0 | 0 | 0 | 0 | GSGSGSGS ([2Abz]GSGSGSGS[Tyr(3-NO2)]-NH2) [LNK064] | % cleavage MMP-7 t = 60 min (MMP-7): 0%; % cleavage MMP-7 t = 120 min (MMP-7): 0% |
| 0 | 0 | 0 | 0 | 0 | 0 | 0 | 23 | 23 | 74 | 74 | 100 | 100 | 0 | 0 | 0 | 0 | 0 | 0 | 0 | HSSKLQYFGKL ([2Abz]HSSKLQYFGKL[Tyr(3-NO2)]-NH2) [LNK061] | % cleavage MMP-7 t = 60 min (MMP-7): 0%; % cleavage MMP-7 t = 120 min (MMP-7): 0% |
| 8 | 31 | 55 | 67 | 0 | 0 | 0 | 1 | 1 | 2 | 2 | 4 | 4 | 0 | 0 | 0 | 60 | 100 | 100 | 0 | RGRRHSSKLQ ([2Abz]RGRRHSSKLQ[Tyr(3-NO2)]-NH2) [LNK052] | % cleavage MMP-7 t = 60 min (MMP-7): 0%; % cleavage MMP-7 t = 120 min (MMP-7): 0% |
| 28 | 79 | 100 | 100 | 0 | 0 | 0 | 71 | 71 | 100 | 100 | 100 | 100 | 41 | 100 | 100 | 66 | 100 | 100 | 0 | RGRRHSSKLQPLGYFGKL ([2Abz]RGRRHSSKLQPLGYFGKL[Tyr(3-NO2)]-NH2) [LNK062] | % cleavage MMP-7 t = 60 min (MMP-7): 0%; % cleavage MMP-7 t = 120 min (MMP-7): 0% |
| 23 | 59 | 87 | 96 | 0 | 0 | 0 |  | 1 |  | 5 |  | 9 |  |  |  | 2 | 6 | 10 |  | RRLNYSL ([2Abz]RRLNYSL[Tyr(3-NO2)]-NH2) [LNK074] |  |
| 49 | 83 | 94 | 100 | 2 | 9 | 19 | 16 | 16 | 60 | 60 | 86 | 86 | 1 | 5 | 10 | 8 | 33 | 56 | 0 | RSSYRSL ([2Abz]RSSYRSL[Tyr(3-NO2)]-NH2) [LNK075] | % cleavage MMP-7 t = 60 min (MMP-7): 0%; % cleavage MMP-7 t = 120 min (MMP-7): 0% |
| 0 | 0 | 0 | 0 | 0 | 0 | 0 |  | 19 |  | 69 |  | 92 |  |  |  | 0 | 0 | 0 |  | RSSYYSL ([2Abz]RSSYYSL[Tyr(3-NO2)]-NH2) [LNK076] |  |
| 27 | 62 | 87 | 94 | 0 | 0 | 0 |  | 3 |  | 11 |  | 19 |  |  |  | 0 | 0 | 0 |  | SS-Nle-YSSAG ([2Abz]SS[Nle]YSSAG[Tyr(3-NO2)]-NH2) [LNK081] |  |
| 6 | 16 | 31 | 40 | 0 | 0 | 0 |  | 1 |  | 6 |  | 13 |  |  |  | 0 | 0 | 0 |  | SSQYSSPG ([2Abz]SSQYSSPG[Tyr(3-NO2)]-NH2) [LNK069] |  |
